Experimental data: paper PMC9410871, “Structural basis of DNA packaging by a ring-type ATPase from an archetypal viral system” (Nucleic Acids Research, 2022)

B1: HK97 portal (portal complex of the procapsid) (natural protein, bacteriophage HK97, UniProt P49859 1-424, looked up)
chain: MEEPKYTIDLRTNNGWWARLKSWFVGGRLVTPNQGSQTGPVSAHGYLGDSSINDERILQISTVWRCVSLISTLTACLPLDVFETDQNDNRKKVDLSNPLARLLRYSPNQYMTAQEFREAMTMQLCFYGNAYALVDRNSAGDVISLLPLQSANMDVKLVGKKVVYRYQRDSEYADFSQKEIFHLKGFGFTGLVGLSPIAFACKSAGVAVAMEDQQRDFFANGAKSPQILSTGEKVLTEQQRSQVEENFKEIAGGPVKKRLWILEAGFSTSAIGVTPQDAEMMASRKFQVSELARFFGVPPHLVGDVEKSTSWGSGIEQQNLGFLQYTLQPYISRWENSIQRWLIPSKDVGRLHAEHNLDGLLRGDSASRAAFMKAMGESGLRTINEMRRTDNMPPLPGGDVAMRQAQYVPITDLGTNKEPRNNGA
notes: Portal protein of bacteriophage HK97, within the procapsid; Seen only as part of the procapsid m4; source: E. coli 594 infected with HK97 amber mutant amC2; within purified procapsids; copies: 12

Tests used:
[1] = biological target: HK97 small terminase (TerS) protein GP1 (bacteriophage HK97); assay: SEC-MALS; TerS in solution; conditions not told in the main text
[2] = biological target: HK97 small terminase (TerS) protein GP1 (bacteriophage HK97); assay: native MS; TerS buffer-exchanged into 200 mM ammonium acetate, pH 7.5; modified Q-Exactive Orbitrap, positive ion mode, static nanospray
[3] = biological target: HK97 small terminase (TerS) protein GP1 (bacteriophage HK97); assay: crystal structure; TerS 22 mg/mL in 300 mM potassium glutamate, 20 mM HEPES pH 7.0; reservoir 9% PEG 3350, 0.1 M succinic acid pH 7.0; three subunits in the asymmetric unit around a crystallographic 3-fold axis
[4] = biological target: the molecule itself; assay: cryo-EM structure; packaging reaction with 125 nM prohead, 125 nM ScaI-linearized pUC18 DNA, 1 uM TerL, 2 uM TerS, vitrified about 30 s after 1 mM ATP; 5-fold symmetry applied to resolve TerL, 6-fold to resolve the portal

Molecule | stoichiometry N [1] | stoichiometry N [2] | stoichiometry N [3] | stoichiometry N [4]
HK97 small terminase (TerS) protein GP1 (natural protein) | 9 | 9 | 9 | 
B1 |  |  |  | 12
